The results in this text go back to FireProtDB (doi:10.1016/s0301-4622(99)00140-4).

For this data set the following is noted: Bos taurus, pH 8, Thermal, DSC, Tris 10 mM, whole UniProt chain shown.

B1: Alpha-lactalbumin wild type, P00711 (protein)
chain: MMSFVSLLLVGILFHATQAEQLTKCEVFRELKDLKGYGGVSLPEWVCTTFHTSGYDTQAIVQNNDSTEYGLFQINNKIWCKDDQNPHSSNICNISCDKFLDDDLTDDIMCVKKILDKVGINYWLAHKALCSEKLDQWLCEKL
In the case of B1, the melting temperature (Tm) by setting is: (CaCl2 0.0 mM) 64.1 °C; (CaCl2 0.1 mM) 65.2 °C; (CaCl2 1.0 mM) 67.9 °C; (CaCl2 2.0 mM) 68.9 °C; (CaCl2 10.0 mM) 70 °C. The “unfolding enthalpy (calorimetric)” value reads like this: (CaCl2 0.0 mM) 64.8 kcal/mol; (CaCl2 0.1 mM) 71.1 kcal/mol; (CaCl2 1.0 mM) 75.6 kcal/mol; (CaCl2 2.0 mM) 76 kcal/mol; (CaCl2 10.0 mM) 75 kcal/mol.
